Starred links: 1 amine or outer side, 2 acyl side, 3 side chain; linkers in the order of their positions; H or OH if unused. Non-standard residues stand in square brackets, D forms with d. No end group written: not given here. *: point of attachment. Trp(7-F) = N[C@@H](Cc1c[nH]c2c(F)cccc12)C(=O)O; Trp(7-Me) = Cc1cccc2c(C[C@H](N)C(=O)O)c[nH]c12; C20 diacid = O=C(O)CCCCCCCCCCCCCCCCCCC(=O)*; d(γGlu) = O=C(O)[C@@H](CCC(=O)[*:2])N[*:1]; C18 diacid = O=C(O)CCCCCCCCCCCCCCCCC(=O)*; γGlu = O=C(O)[C@H](CCC(=O)[*:2])N[*:1]; 2Nal = N[C@@H](Cc1ccc2ccccc2c1)C(=O)O; Cha = N[C@@H](CC1CCCCC1)C(=O)O; Nle = CCCC[C@H](N)C(=O)O; AEEA = NCCOCCOCC(=O)O; Sar = CNCC(=O)O
B1: Peptide 123 (peptide)
peptide: {C20 diacid}-[γGlu][AEEA][AEEA]GNH[Trp(7-Me)]AV[dA]HL[Nle][Sar]-NH2
SMILES: CCCC[C@H](NC(=O)[C@H](CC(C)C)NC(=O)[C@H](Cc1c[nH]cn1)NC(=O)[C@@H](C)NC(=O)[C@@H](NC(=O)[C@H](C)NC(=O)[C@H](Cc1c[nH]c2c(C)cccc12)NC(=O)[C@H](Cc1c[nH]cn1)NC(=O)[C@H](CC(N)=O)NC(=O)CNC(=O)COCCOCCNC(=O)COCCOCCNC(=O)CC[C@H](NC(=O)CCCCCCCCCCCCCCCCCCC(=O)O)C(=O)O)C(C)C)C(=O)N(C)CC(N)=O
B2: GRP-10 (human GRP18-27) (peptide)
peptide: GNHWAVGHLM-NH2
B3: Peptide 121 (peptide)
peptide: {C18 diacid}-[γGlu][AEEA][AEEA][AEEA][AEEA]GAH[Trp(7-F)]AV[dA]HL[Nle][Sar]-NH2
SMILES: CCCC[C@H](NC(=O)[C@H](CC(C)C)NC(=O)[C@H](Cc1c[nH]cn1)NC(=O)[C@@H](C)NC(=O)[C@@H](NC(=O)[C@H](C)NC(=O)[C@H](Cc1c[nH]c2c(F)cccc12)NC(=O)[C@H](Cc1c[nH]cn1)NC(=O)[C@H](C)NC(=O)CNC(=O)COCCOCCNC(=O)COCCOCCNC(=O)COCCOCCNC(=O)COCCOCCNC(=O)CC[C@H](NC(=O)CCCCCCCCCCCCCCCCC(=O)O)C(=O)O)C(C)C)C(=O)N(C)CC(N)=O
B4: Peptide 129 (peptide)
peptide: {C18 diacid}-[γGlu][AEEA][AEEA]GRH[Trp(7-Me)]AV[dA]HL[Nle][Sar]-NH2
SMILES: CCCC[C@H](NC(=O)[C@H](CC(C)C)NC(=O)[C@H](Cc1c[nH]cn1)NC(=O)[C@@H](C)NC(=O)[C@@H](NC(=O)[C@H](C)NC(=O)[C@H](Cc1c[nH]c2c(C)cccc12)NC(=O)[C@H](Cc1c[nH]cn1)NC(=O)[C@H](CCCNC(=N)N)NC(=O)CNC(=O)COCCOCCNC(=O)COCCOCCNC(=O)CC[C@H](NC(=O)CCCCCCCCCCCCCCCCC(=O)O)C(=O)O)C(C)C)C(=O)N(C)CC(N)=O
B5: Peptide 9 (peptide)
peptide: {C18 diacid}-[d(γGlu)][AEEA][AEEA]GNHWAV[dA]HL[Nle]-NH2
SMILES: CCCC[C@H](NC(=O)[C@H](CC(C)C)NC(=O)[C@H](Cc1c[nH]cn1)NC(=O)[C@@H](C)NC(=O)[C@@H](NC(=O)[C@H](C)NC(=O)[C@H](Cc1c[nH]c2ccccc12)NC(=O)[C@H](Cc1c[nH]cn1)NC(=O)[C@H](CC(N)=O)NC(=O)CNC(=O)COCCOCCNC(=O)COCCOCCNC(=O)CC[C@@H](NC(=O)CCCCCCCCCCCCCCCCC(=O)O)C(=O)O)C(C)C)C(N)=O
B6: Peptide 10 (peptide)
peptide: GNHWAVXHLX
modifications: Palmitoyl-Gly-Asn-His-Trp-Ala-Val-D-Ala-His-Leu-Nle-NH2
B7: Peptide 119 (peptide)
peptide: {C18 diacid}-[γGlu][AEEA][AEEA]GNHWAV[dA]HL[Cha]-NH2
SMILES: CC(C)C[C@H](NC(=O)[C@H](Cc1c[nH]cn1)NC(=O)[C@@H](C)NC(=O)[C@@H](NC(=O)[C@H](C)NC(=O)[C@H](Cc1c[nH]c2ccccc12)NC(=O)[C@H](Cc1c[nH]cn1)NC(=O)[C@H](CC(N)=O)NC(=O)CNC(=O)COCCOCCNC(=O)COCCOCCNC(=O)CC[C@H](NC(=O)CCCCCCCCCCCCCCCCC(=O)O)C(=O)O)C(C)C)C(=O)N[C@@H](CC1CCCCC1)C(N)=O
B8: Peptide 126 (peptide)
peptide: {C18 diacid}-[γGlu][AEEA][AEEA]GAH[2Nal]AV[dA]HL[Nle]-NH2
SMILES: CCCC[C@H](NC(=O)[C@H](CC(C)C)NC(=O)[C@H](Cc1c[nH]cn1)NC(=O)[C@@H](C)NC(=O)[C@@H](NC(=O)[C@H](C)NC(=O)[C@H](Cc1ccc2ccccc2c1)NC(=O)[C@H](Cc1c[nH]cn1)NC(=O)[C@H](C)NC(=O)CNC(=O)COCCOCCNC(=O)COCCOCCNC(=O)CC[C@H](NC(=O)CCCCCCCCCCCCCCCCC(=O)O)C(=O)O)C(C)C)C(N)=O
B9: Peptide 122 (peptide)
peptide: {C20 diacid}-[γGlu][AEEA][AEEA][AEEA][AEEA]GRH[Trp(7-Me)]AV[dA]HL[Nle]-NH2
SMILES: CCCC[C@H](NC(=O)[C@H](CC(C)C)NC(=O)[C@H](Cc1c[nH]cn1)NC(=O)[C@@H](C)NC(=O)[C@@H](NC(=O)[C@H](C)NC(=O)[C@H](Cc1c[nH]c2c(C)cccc12)NC(=O)[C@H](Cc1c[nH]cn1)NC(=O)[C@H](CCCNC(=N)N)NC(=O)CNC(=O)COCCOCCNC(=O)COCCOCCNC(=O)COCCOCCNC(=O)COCCOCCNC(=O)CC[C@H](NC(=O)CCCCCCCCCCCCCCCCCCC(=O)O)C(=O)O)C(C)C)C(N)=O
B10: Peptide 124 (peptide)
peptide: {C18 diacid}-[γGlu][AEEA][AEEA]GAH[2Nal]AV[dA]HL[Nle][Sar]-NH2
SMILES: CCCC[C@H](NC(=O)[C@H](CC(C)C)NC(=O)[C@H](Cc1c[nH]cn1)NC(=O)[C@@H](C)NC(=O)[C@@H](NC(=O)[C@H](C)NC(=O)[C@H](Cc1ccc2ccccc2c1)NC(=O)[C@H](Cc1c[nH]cn1)NC(=O)[C@H](C)NC(=O)CNC(=O)COCCOCCNC(=O)COCCOCCNC(=O)CC[C@H](NC(=O)CCCCCCCCCCCCCCCCC(=O)O)C(=O)O)C(C)C)C(=O)N(C)CC(N)=O
B11: Peptide 120 (peptide)
peptide: {C18 diacid}-[γGlu][AEEA][AEEA]GAHWAV[dA]HL[Cha]-NH2
SMILES: CC(C)C[C@H](NC(=O)[C@H](Cc1c[nH]cn1)NC(=O)[C@@H](C)NC(=O)[C@@H](NC(=O)[C@H](C)NC(=O)[C@H](Cc1c[nH]c2ccccc12)NC(=O)[C@H](Cc1c[nH]cn1)NC(=O)[C@H](C)NC(=O)CNC(=O)COCCOCCNC(=O)COCCOCCNC(=O)CC[C@H](NC(=O)CCCCCCCCCCCCCCCCC(=O)O)C(=O)O)C(C)C)C(=O)N[C@@H](CC1CCCCC1)C(N)=O
B12: Peptide 125 (peptide)
peptide: {C20 diacid}-[γGlu][AEEA][AEEA]GNH[Trp(7-Me)][dA]V[dA]HL[Nle][Sar]-NH2
SMILES: CCCC[C@H](NC(=O)[C@H](CC(C)C)NC(=O)[C@H](Cc1c[nH]cn1)NC(=O)[C@@H](C)NC(=O)[C@@H](NC(=O)[C@@H](C)NC(=O)[C@H](Cc1c[nH]c2c(C)cccc12)NC(=O)[C@H](Cc1c[nH]cn1)NC(=O)[C@H](CC(N)=O)NC(=O)CNC(=O)COCCOCCNC(=O)COCCOCCNC(=O)CC[C@H](NC(=O)CCCCCCCCCCCCCCCCCCC(=O)O)C(=O)O)C(C)C)C(=O)N(C)CC(N)=O
B13: Peptide 128 (peptide)
peptide: {C18 diacid}-[γGlu][AEEA][AEEA]GAHW[dA]V[dA]HL[Nle][Sar]-NH2
SMILES: CCCC[C@H](NC(=O)[C@H](CC(C)C)NC(=O)[C@H](Cc1c[nH]cn1)NC(=O)[C@@H](C)NC(=O)[C@@H](NC(=O)[C@@H](C)NC(=O)[C@H](Cc1c[nH]c2ccccc12)NC(=O)[C@H](Cc1c[nH]cn1)NC(=O)[C@H](C)NC(=O)CNC(=O)COCCOCCNC(=O)COCCOCCNC(=O)CC[C@H](NC(=O)CCCCCCCCCCCCCCCCC(=O)O)C(=O)O)C(C)C)C(=O)N(C)CC(N)=O

Biological target: human GRP receptor (human, UniProt P30550 1-384)
Assay: cell-based or functional assay

human GRP receptor, sequence (P30550 whole entry): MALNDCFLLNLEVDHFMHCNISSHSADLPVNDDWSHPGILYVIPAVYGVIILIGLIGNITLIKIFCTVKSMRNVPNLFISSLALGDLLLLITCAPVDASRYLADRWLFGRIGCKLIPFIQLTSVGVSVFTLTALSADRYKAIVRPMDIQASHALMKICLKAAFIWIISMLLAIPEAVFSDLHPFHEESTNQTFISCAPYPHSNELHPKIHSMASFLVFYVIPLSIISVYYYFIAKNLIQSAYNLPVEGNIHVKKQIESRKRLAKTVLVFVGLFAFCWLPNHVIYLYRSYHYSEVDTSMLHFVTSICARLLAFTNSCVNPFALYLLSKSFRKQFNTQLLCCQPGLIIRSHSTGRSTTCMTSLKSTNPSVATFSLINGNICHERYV

Row | hIP1 GRPR EC50 [nM] | Binder
1 | 60.1 | B1
2 | 15 | B2
3 | 356 | B3
4 | 334 | B4
5 | 9.4 | B5
6 | 3.8 | B6
7 | 660 | B7
8 | 92.5 | B8
9 | 3.88 | B9
10 | 2380 | B10
11 | 443 | B11
12 | > 10000 | B12
13 | 1060 | B13
